The text below walks through data of patent publication US20250049888A1, “USE OF THE NEGR1 PROTEIN AND BIOLOGICALLY ACTIVE FRAGMENTS THEREOF IN THE THERAPEUTIC TREATMENT OF ALK-RELATED DISEASES” (FONDAZIONE TELETHON ETS (70%), priority 2021, published 2025).

For data set [1], the system named is N2a cells. As to the kind of experiment: N2a proliferation, cell number at DIV5. Particulars: 200 ng daily, vs GFP. The format is cell-based, murine. Here is the method: Next, 10,000 naive N2a cells were seeded and treated daily with 200 ng Negr1, PepA, PepB, PepC, or GFP. At DIV5, cell number was evaluated.
In data set [2] the test system is N2a cells. As to the kind of experiment: N2a cell growth, MTT assay. The format is cell-based, murine. The note with it: 500 ng/ml daily, vs GFP. As to the method: (§1) The 3-(4,5-dimethylthiazol-2-yl)-2,5-diphenyl tetrazolium bromide (MTT) assay was performed to evaluate culture vitality. N2a cells were cultured in a 96-well plate at a concentration of 5×10^3 cell/cm^2. Treatment condition is indicated in the result section. At the end of the treatment, the MTT solution was added to the cell medium at a final concentration of 0.25 mg/mL. The incubation lasted 30 minutes at 37° C. Next, the medium was removed and the formazan precipitates were collected in DMSO (200 μL). The absorbance was measured at 570 nm using a spectrophotometer (Varioskan LUX, Thermofisher) as a proxy for cell viability. Relative cell viability fold is expressed over the control condition.
At the physiological level, Negr1 exists as a GPI-anchored membrane-bound protein and as a soluble protein released upon metalloprotease cleavage (Sanz et al. 2015; Pischedda and Piccoli 2015). Thus, the inventors studied whether ectopic treatment with soluble recombinant Negr1 (Negr1) might modulate cancer cell growth. […] At DIV5, cellular growth was evaluated by MTT assay.
To further narrow down the minimal biologically active sequence within PepA, the PepA structure was analysed in silico. […] At DIV5, cellular growth was evaluated by MTT assay.
A general note: Tetrazolium assays rely on reduction of a dye to a coloured formazan, in cell work by metabolically active cells.

Data set [3] deals with A549 (adenocarcinoma alveolar basal epithelial cells). As to the kind of experiment: Growth of human cancer-derived cell line, MTT assay. The note with it: 200 ng daily, vs GFP. The format is cell-based. As to the method: as §1
(§2) Next, the capability of Negr1 and peptide PepA to halt the growth of human cancer-derived cell lines, namely U87 (glioblastoma), SK-Mel5 (melanoma), MCF7 (breast adenocarcinoma), A549 (adenocarcinoma alveolar basal epithelial cells), and SH-SY5Y (neuroblastoma) was tested. To this aim, each line was treated daily with 200 ng GFP, rNegr1, or PepA. At DIV5, cellular growth was evaluated by MTT assay. […] Such results are in good agreement with the expression of the receptor ALK, that has been experimentally detected in cancer cell lines of ectodermal origin (including small cell lung carcinoma, breast carcinoma, melanoma, neuroblastoma, and glioblastoma) (Dirks et al. 2002).

In data set [4] the test system is MCF7 (breast adenocarcinoma). Described as above. The format is cell-based. Particulars: 200 ng daily, vs GFP. Here is the method: as §1, §2
Data set [5] deals with SH-SY5Y (neuroblastoma). Described as above. The data set is classed as cell-based. Particulars: 200 ng daily, vs GFP. Here is the method:
as §1, §2

Data set [6] has as its system SK-Mel5 (melanoma). Described as above. The data set is classed as cell-based. Particulars: 200 ng daily, vs GFP. As to the method: as §1, §2
Data set [7] relates to U87 (glioblastoma). Described as above. The data set is classed as cell-based. The note with it: 200 ng daily, vs GFP. As to the method: as §1, §2
In data set [8] the test system is N2a cells. As to the kind of experiment: N2a xenograft tumor growth in CD1 nude mice. The data set is classed as in vivo. As to the method:
1 million N2a cells were suspended in 150 μl of DMEM high glucose and delivered subcutaneously above the left rear paw in 8-week old nu/nu mice (Charles River) by injection with a micro-syringe (Hamilton). All procedures involving animals were approved by Institutional and National Agencies (authorization 559/2016-PR).
Xenograft mouse models represent an established tool to investigate cancer progression in vivo. To this aim, 1 million N2a cells (naive, clone 3, and clone 11) was injected subcutaneously (s.c.) in immunodeficient CD1 nude mice. Tumor volume was monitored […] by measuring tumor size with a Vernier caliper. Tumor volume was calculated using the ellipsoid formula (length×width×height×0.52).
To further assess the anti-neoplastic activity of PepA, 1 million N2a cells were injected s.c in 6-weeks old CD1 nude mice. When the tumor reached 100 mm^3 volume, 2 μg of GFP or PepA were injected in situ. The treatment was repeated every second day, and tumor growth was monitored daily.
Next, 1 million N2a cells were injected s.c in 6-weeks old nude mice. […] The treatment was repeated every second day and the tumor growth was monitored daily.
Treatment was repeated every second day and tumor growth was monitored daily.
To this aim, 1 million N2a cells were injected s.c in 6-weeks old CD1 nude mice. […] The treatment was repeated every second day and the tumor growth was monitored daily.

Data set [9] in a line: Presence in tumor, liver and kidney by STREP-pulldown after in situ injection. The note with it: after in situ injection of 2 μg every second day, day 9. The data set is classed as in vivo, mice. As to the method:
HEK293 cells transfected with the relative construct were lysed in RIPA buffer (150 mM NaCl, 50 mM HEPES, 0.5% NP40, 1% Sodium-deoxycholate) for one hour at 4° C. and then processed for streptavidin immunoprecipitation. Proteins were eluted from STREP resin in elution buffer (2.5 mM Desthiobiotin, 100 mM Tris-HCL, 150 mM NaCl, 1 mM EDTA) in mild agitation for one hour at 4° C. The protein concentration was measured via standard Bradford assay (Bio-Rad), and protein purity was assessed by SDS-PAGE followed by silver staining. Synthetic peptides were purchased at Genscript Nederland. Mice tissues were lysed in RIPA buffer (150 mM NaCl, 50 mM HEPES, 0.5% NP40, 1% Sodium-deoxycholate, 1 ml/mg of tissue) for one hour at 4° C. and then processed for streptavidin immunoprecipitation. Proteins were eluted from STREP resin in Laemmli buffer.
At day 9 post injection (or earlier in case the tumor reached 2.5 cm^3 volume), the animals were sacrificed and the mice tissues were harvested and analysed for the presence of GFP and PepA.

Data set [10] deals with CD34. As to the kind of experiment: Tumor neo-vascularization by CD34 immunofluorescence. The format is in vivo, mice. Particulars: tumors treated in situ, vs GFP. Here is the method: Tumors were dissected, post-fixed for 2 hours by immersion in 4% PFA, then included in OCT and stored at −80° C. until processing. 14 μm sections were obtained after serial sectioning on Leica cryostat and mounted on Polysine Slides (Thermo Fischer Scientific). The slices were saturated in 2.5% BSA, 10% NGS, 0.2% Triton X-100, PBS 1×, for 1 hour at RT and incubated with the primary antibody O/N at 4° C. (Anti-CD34 antibody [EP373Y], ABCAM, ab81289). After 3 washes in PBS 1×-0.2% Triton X-100 the sections were incubated for 1 h with the conjugated secondary antibody at RT (AffiniPure Goat Anti-Rabbit IgG (H+L) Alexa Fluor 594, Jackson ImmunoResearch, 111-585-003). The slices were then rinsed 3 times in PBS 1×-0.2% Triton X-100, rinsed once in PBS1× and then mounted in water-based mounting media. Sections were kept at 4° C. in the dark until acquisition with a Zeiss Axio Imager M2 equipped with 40× objective.
Cancer growth requires and triggers vascularization. In particular, cancer mass is characterized by the presence of immature vessels decorated by CD34 protein. Thus, the inventors analyzed tumor neo-vascularization by detecting CD34 protein.

Data set [11] has as its system ALK. As to the kind of experiment: ALK protein expression level in N2a cells, western blotting. The format is cell-based, murine. Particulars: 300 ng/ml daily for 5 days, vs GFP. Here is the method:
Protein level and relative phosphorylation was assessed by western blotting. Briefly, upon a wash in PBS, cells were solubilized in lysis buffer (150 mM NaCl, 50 mM HEPES, 0.5% NP40, 1% sodium-deoxycholate). After 1 hour under mild agitation, the lysate was clarified by centrifugation for 20 min at 16,000 g. All experimental procedures were performed at 4° C. Protein concentrations were evaluated via Bradford assay (Bio-Rad, USA). For Western blotting experiments, an equal amount of proteins was diluted with 0.25% 5× Laemmli buffer. The samples were separated on 10% SDS-PAGE gels which were transferred onto nitrocellulose membrane (Sigma-Aldrich) at 80 V for 120 min at 4° C. […] Antibodies were applied overnight in blocking buffer (20 mM Tris, pH 7.4, 150 mM NaCl, 0.1% Tween 20, and 5% nonfat dry milk). Proteins were detected using the ECL prime detection system (GE Healthcare). The ECL signals were acquired with the imaging ChemiDoc Touch system (Bio Rad Laboratory Italy, Segrate, Italy). The optical density of the specific bands was quantified with ImageLab software (Bio Rad).
For orientation: Immunoblotting shows a protein as a band on a membrane.

The test system of data set [12] is MYCN. As to the kind of experiment: MYCN protein expression level in N2a cells, western blotting. The data set is classed as cell-based, murine. Particulars: 300 ng/ml daily for 5 days, vs GFP. Here is the method:
Protein level and relative phosphorylation was assessed by western blotting. Briefly, upon a wash in PBS, cells were solubilized in lysis buffer (150 mM NaCl, 50 mM HEPES, 0.5% NP40, 1% sodium-deoxycholate). After 1 hour under mild agitation, the lysate was clarified by centrifugation for 20 min at 16,000 g. All experimental procedures were performed at 4° C. Protein concentrations were evaluated via Bradford assay (Bio-Rad, USA). For Western blotting experiments, an equal amount of proteins was diluted with 0.25% 5× Laemmli buffer. The samples were separated on 10% SDS-PAGE gels which were transferred onto nitrocellulose membrane (Sigma-Aldrich) at 80 V for 120 min at 4° C. […] Proteins were detected using the ECL prime detection system (GE Healthcare). […] The optical density of the specific bands was quantified with ImageLab software (Bio Rad).
The inventors monitored whether treatment with rNegr1 or PepA might impact on ALK-MYCN pathway. […] At DIV5, the culture was processed for western blotting and ALK and MYCN protein expression levels were evaluated.
At DIV5, the culture was processed for western-blotting, and ALK and MYCN protein expression was evaluated.

B1: PepC: Negr1 IgG-like domain, SEQ ID NO:17, strep-FLAG tagged recombinant protein (protein)
chain: APTIQEIKSGTVTPGRSGLIRCEGAGVPPPAFEWYKGEKRLFNGQQGIIIQNFSTRSILTVTNVTQEHFGNYTCVAANKLGTTNASLP
modifications: strep-FLAG tag; PepC
Regarding B1, in [1], the “N2a proliferation (cell number) at DIV5” value was “did not”.

B2: PepA: first Negr1 IgG-like domain, SEQ ID NO:8, strep-FLAG tagged recombinant protein from HEK293 cells (protein)
chain: VDFPWAAVDNMLVRKGDTAVLRCYLEDGASKGAWLNRSSIIFAGGDKWSVDPRVSISTLNKRDYSLQIQNVDVTDDGPYTCSVQTQHTPRTMQVHL
modifications: strep-FLAG tag; PepA
On to B2, for which the “N2a growth (MTT) at DIV5” value in data set [2] is recorded as “significantly reduced N2a growth”. In [1], the “N2a proliferation (cell number) at DIV5” value is “significantly reduced N2a proliferation”. Further, the “growth of A549 cells (MTT) at DIV5” value in data set [3] is “significantly reduce the growth”. For the same molecule, the “growth of MCF7 cells (MTT) at DIV5” value in data set [4] is given as “significantly reduce the growth”. For the same molecule, the “growth of SH-SY5Y cells (MTT) at DIV5” value in data set [5] is “significantly reduce the growth”. The “growth of SK-Mel5 cells (MTT) at DIV5” value in data set [6] was “significantly reduce the growth”. For the same molecule, in data set [7], the “growth of U87 cells (MTT) at DIV5” value is reported as “significantly reduce the growth”. Further, the “tumor growth (tumor volume, fold over day 1)” value in data set [8] (2 μg in situ every second day, vs GFP) is “robust growth reduction in tumor”; in data set [8] (10 μg in situ every second day, vs PEG-scramble peptide), “robust growth reduction in tumor”. Also, in data set [9], the “presence in mice tissues (STREP-pulldown)” value was “present in the tumor, liver, and kidney”. The “tumor vascularization (total area stained by CD34 and average vessel area)” value in data set [10] is on record as “strongly reduced vascularization”. Further, the ALK protein level result in data set [11] was “robust reduction of ALK and MYCN protein levels”. In addition, the MYCN protein level entry in [12] was “robust reduction of ALK and MYCN protein levels”.

B3: PepB: Negr1 IgG-like domain, SEQ ID NO:16, strep-FLAG tagged recombinant protein (protein)
chain: PKIYDISNDMTINEGTNVTLTCLATGKPEPVISWRHISPSAKPFENGQYLDIYGITRDQAGEYECSAENDVSFPDVKKVRVI
modifications: strep-FLAG tag; PepB
On to B3, for which the “N2a proliferation (cell number) at DIV5” value in [1] is listed as “did not”.
